Values of other authors as cited in patent US20070155650A1, “Use of cathepsin z inhibitors for the treatment of rhuematoid arthritis and other autoimmune diseases” (AVENTIS PHARMACEUTICALS INC., priority 2003, published 2007).
Like-named read-outs stand apart in the source and are kept apart here.

How the values were obtained:
Cathepsin Z = Cathepsin Z (Homo sapiens, UniProt Q9UBR2); conditions: result in words
Cathepsin B = Cathepsin B (Homo sapiens, UniProt P07858); conditions: result in words

Sequence of Cathepsin Z (Q9UBR2 62-303): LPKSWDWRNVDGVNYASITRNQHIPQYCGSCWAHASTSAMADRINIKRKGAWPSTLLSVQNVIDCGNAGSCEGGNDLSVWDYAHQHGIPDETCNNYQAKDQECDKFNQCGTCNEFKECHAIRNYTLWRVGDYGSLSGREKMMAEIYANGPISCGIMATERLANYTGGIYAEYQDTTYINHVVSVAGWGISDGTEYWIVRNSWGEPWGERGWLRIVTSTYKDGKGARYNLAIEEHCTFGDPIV

CCCNC(=O)[C@H]1O[C@@H]1C(=O)N[C@H](C(=O)N1CCC[C@H]1C(=O)O)[C@@H](C)CC [CA-074]
Cathepsin Z activity inhibited or not (Cathepsin Z): inhibited
Cathepsin B activity inhibited (Cathepsin B): block Cathepsin B activity
Cathepsin B activity inhibited (Cathepsin B; listed as CA-704): known synthetic inhibitors of Cathepsin B

B1: stefin A: protein inhibitor shown to inhibit Cathepsin Z activity (protein, UniProt P01040 1-98, looked up)
Cystatin-A: MIPGGLSEAKPATPEIQEIVDKVKPQLEEKTNETYGKLEAVQYKTQVVAGTNYYIKVRAGDNKYMHLKVFKSLPGQNEDLVLTGYQVDKNKDDELTGF
Cathepsin Z activity inhibited or not (Cathepsin Z): inhibited

B2: stefin B: protein inhibitor shown to inhibit Cathepsin Z activity (protein, UniProt P04080 1-98, looked up)
Cystatin-B: MMCGAPSATQPATAETQHIADQVRSQLEEKENKKFPVFKAVSFKSQVVAGTNYFIKVHVGDEDFVHLRVFQSLPHENKPLTLSNYQTNKAKHDELTYF
Cathepsin Z activity inhibited or not (Cathepsin Z): inhibited

B3: cystatin C: protein inhibitor shown to inhibit Cathepsin Z activity (protein, UniProt P01034 27-146, looked up)
Cystatin-C: SSPGKPPRLVGGPMDASVEEEGVRRALDFAVGEYNKASNDMYHSRALQVVRARKQIVAGVNYFLDVELGRTTCTKTQPNLDNCPFHDQPHLKRKAFCSFQIYAVPWQGTMTLSKSTCQDA
Cathepsin Z activity inhibited or not (Cathepsin Z): inhibited

B4: chicken cystatin: protein inhibitor shown to inhibit Cathepsin Z activity (protein, UniProt P01038 24-139, looked up)
Cystatin: SEDRSRLLGAPVPVDENDEGLQRALQFAMAEYNRASNDKYSSRVVRVISAKRQLVSGIKYILQVEIGRTTCPKSSGDLQSCEFHDEPEMAKYTTCTFVVYSIPWLNQIKLLESKCQ
Cathepsin Z activity inhibited or not (Cathepsin Z): inhibited
